Results reported in patent publication US20250043001A1 (Xencor, published 2025).
Residue numbers refer to the chain shown, from its start.

Legend:
human CD28 [1] = target: T1, human CD28 (human, UniProt P10747 19-152); test: affinity; method not given
T1 construct: also called Cluster of Differentiation 28; Tp44

CEACAM5 [2] = target: T2, CEACAM5 (UniProt P06731 35-685); test: affinity at 25 C (Octet per FIG. 79 legend)
T2 construct: also called carcinoembryonic antigen-related cell adhesion molecule 5; CD66e
T2 sequence (looked up): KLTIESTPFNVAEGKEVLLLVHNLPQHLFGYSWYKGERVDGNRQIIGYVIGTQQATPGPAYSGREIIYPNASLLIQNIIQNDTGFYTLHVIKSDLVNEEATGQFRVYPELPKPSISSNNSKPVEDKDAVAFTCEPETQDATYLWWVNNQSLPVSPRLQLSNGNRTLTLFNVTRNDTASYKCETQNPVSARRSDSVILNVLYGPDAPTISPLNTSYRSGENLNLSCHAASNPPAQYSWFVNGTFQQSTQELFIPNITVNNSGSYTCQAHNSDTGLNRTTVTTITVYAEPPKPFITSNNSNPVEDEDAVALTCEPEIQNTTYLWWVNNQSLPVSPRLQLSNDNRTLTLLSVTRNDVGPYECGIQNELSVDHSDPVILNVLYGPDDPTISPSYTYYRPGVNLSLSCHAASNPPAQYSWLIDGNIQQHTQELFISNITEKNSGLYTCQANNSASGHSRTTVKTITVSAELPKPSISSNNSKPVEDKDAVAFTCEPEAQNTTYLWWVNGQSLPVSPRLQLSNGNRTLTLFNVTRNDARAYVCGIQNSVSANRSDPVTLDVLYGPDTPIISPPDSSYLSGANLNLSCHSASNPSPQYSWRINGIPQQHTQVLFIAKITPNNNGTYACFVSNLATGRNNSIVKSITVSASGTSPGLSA

CEACAM5 [3] = target: T2, CEACAM5; test: binding affinity (Octet at 25 C per FIG. 80 legend)
CEACAM8 = target: T3, CEACAM8 (UniProt P31997 35-320); test: as above
T3 sequence (looked up): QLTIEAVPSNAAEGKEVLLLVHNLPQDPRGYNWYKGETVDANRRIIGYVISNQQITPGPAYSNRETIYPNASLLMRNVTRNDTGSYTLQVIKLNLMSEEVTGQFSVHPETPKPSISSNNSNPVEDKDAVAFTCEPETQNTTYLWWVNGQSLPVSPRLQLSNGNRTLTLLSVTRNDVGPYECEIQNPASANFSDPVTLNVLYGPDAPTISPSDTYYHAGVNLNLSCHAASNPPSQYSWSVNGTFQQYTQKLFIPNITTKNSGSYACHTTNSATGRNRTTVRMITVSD

human CD28 [4] = target: T1, human CD28; test: CD28 affinity of the scFv arm as quoted in the text; method not given
CEACAM5 [5] = target: T2, CEACAM5; test: CEACAM5 affinity as quoted in the text; method not given
human CD28 [6] = target: T1, human CD28; test: CD28 affinity as quoted in the text; method not given
STEAP1 = target: T4, STEAP1 (UniProt Q9UHE8 1-339, limits assumed); test: flow cytometry, bivalent mAbs on C4-2B cells
T4 construct: whole, on cells; also called Six-Transmembrane Epithelial Antigen of the Prostate 1
Experimental: Optimized humanized STEAP-A variants were then engineered in order to improve their binding affinity to STEAP-1. In the first round, 82 variant VLs were engineered as L1.4-L1.85 and 151 variant VHs were engineered as H1.39-H1.189. Variants were produced as bivalent mAbs, the sequences for which are depicted in FIG. 30. The bivalent mAbs were then screened for binding to STEAP-1 on C4-2B cells. Cells were mixed with mAbs and incubated for 1 hour on ice, washed with PBS, stained with secondary antibody for 1 hour on ice, and washed again before analyzing binding utilizing flow cytometry.
In the second round, 34 variant VLs were engineered and designated as L1.86-L1.119 and 39 variant VHs were engineered and designated as H1.190-H1.228. Bivalent mAbs from the second round of affinity maturation were also screened for binding to STEAP-1 expressed on C4-2B cells. Flow cytometry analysis was used to determine relative maximum MFI values, AUC values, and approximate EC50 values for each test article, as summarized in FIG. 34. […] A final set of variable heavy domain substitutions were engineered and designated H1.229- H1.232. […] Sequences for each variant VH and VL are depicted in FIGS. 31 and 32, respectively.

B1: 1A7_H1.14_L1 (antibody, V domains shown)
VH: EVQLLESGGGLVQPGGSLRLSCAASGFTFSSYYMSWVRQAPGKGLEWVSTISESGDSTYYADSVKGRFTISRDNSKNTLYLQMNSLRAEDTAVYYCAKSGPGLRQVGFDYWGQGTLVTVSS
VL: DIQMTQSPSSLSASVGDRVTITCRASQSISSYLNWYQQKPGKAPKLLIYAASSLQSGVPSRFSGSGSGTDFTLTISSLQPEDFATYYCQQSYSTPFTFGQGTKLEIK
notes: Anti-CD28 VH/VL pair; also called 1A7[CD28]_H1.14_L1
With B1 as the binder, how does the Kd (human CD28 [1]) read?
The Kd was about 200 nM.

B2: CEA-A_H0L0 (antibody, V domains shown)
VH: EVKLVESGGGLVQPGGSLRLSCATSGFTFTDYYMNWVRQPPGKALEWLGFIGNKANGYTTEYSASVKGRFTISRDKSQSILYLQMNTLRAEDSATYYCTRDRGLRFYFDYWGQGTTLTVSS
VL: QTVLSQSPAILSASPGEKVTMTCRASSSVTYIHWYQQKPGSSPKSWIYATSNLASGVPARFSGSGSGTSYSLTISRVEAEDAATYYCQHWSSKPPTFGGGTKLEIK
notes: also called parental CEA-A
B2 was tested. Which Kd (CEACAM5 [2]) did it give?
Its Kd is 0.7 to 2 nM.

B3: CEA-A_H1L2 (antibody, V domains shown)
VH: EVQLVESGGGLVQPGGSLRLSCATSGFTFTDYYMNWVRQAPGKALEWVGFIGNKANGYTTEYSASVKGRFTISRDKSKSSLYLQMNSLKTEDTAVYYCTRDRGLRFYFDYWGQGTLVTVSS
VL: EIVLTQSPATLSLSPGERATLSCRASSSVTYIHWYQQKPGQAPRLLIYATSNLASGIPARFSGSGSGTDFTLTISSLEPEDFAVYYCQHWSSKPPTFGGGTKVEIK
notes: also called HIL2
B3 was tested. Which Kd (CEACAM5 [2]) did it give?
Its Kd is 57 to 69 nM.

B4: CEA-A_H1.7_L2.15 (antibody, V domains shown)
VH: B3 VH with T24A, A44G, G57A
VL: B3 VL with R44K, L45S
With B4 as the binder, how does the Kd (CEACAM5 [3]) read?
Its Kd is 13 nM.

What about the Kd (CEACAM8) of the same binder?
The Kd was 3330 nM.

B5: CEA-A_H1L1 (antibody, V domains shown)
VH: B3 VH
VL: B3 VL with E1Q, I2T, A42S, L45S, I57V, F70Y
notes: also called humanized H1L1
Which Kd (CEACAM5 [2]) does the source give for B5 here?
Its Kd is 5 to 8 nM.

B6: XENP44332 (bispecific antibody)
heavy: EVKLVESGGGLVQPGGSLRLSCATSGFTFTDYYMNWVRQPPGKALEWLGFIGNKANGYTTEYSASVKGRFTISRDKSQSILYLQMNTLRAEDSATYYCTRDRGLRFYFDYWGQGTTLTVSSASTKGPSVFPLAPSSKSTSGGTAALGCLVKDYFPEPVTVSWNSGALTSGVHTFPAVLQSSGLYSLSSVVTVPSSSLGTQTYICNVNHKPSDTKVDKKVEPKSCDKTHTCPPCPAPPVAGPSVFLFPPKPKDTLMISRTPEVTCVVVDVKHEDPEVKFNWYVDGVEVHNAKTKPREEEYNSTYRVVSVLTVLHQDWLNGKEYKCKVSNKALPAPIEKTISKAKGQPREPQVYTLPPSREEMTKNQVSLTCDVSGFYPSDIAVEWESDGQPENNYKTTPPVLDSDGSFFLYSKLTVDKSRWEQGDVFSCSVMHEALHNHYTQKSLSLSPGK
scFv-Fc: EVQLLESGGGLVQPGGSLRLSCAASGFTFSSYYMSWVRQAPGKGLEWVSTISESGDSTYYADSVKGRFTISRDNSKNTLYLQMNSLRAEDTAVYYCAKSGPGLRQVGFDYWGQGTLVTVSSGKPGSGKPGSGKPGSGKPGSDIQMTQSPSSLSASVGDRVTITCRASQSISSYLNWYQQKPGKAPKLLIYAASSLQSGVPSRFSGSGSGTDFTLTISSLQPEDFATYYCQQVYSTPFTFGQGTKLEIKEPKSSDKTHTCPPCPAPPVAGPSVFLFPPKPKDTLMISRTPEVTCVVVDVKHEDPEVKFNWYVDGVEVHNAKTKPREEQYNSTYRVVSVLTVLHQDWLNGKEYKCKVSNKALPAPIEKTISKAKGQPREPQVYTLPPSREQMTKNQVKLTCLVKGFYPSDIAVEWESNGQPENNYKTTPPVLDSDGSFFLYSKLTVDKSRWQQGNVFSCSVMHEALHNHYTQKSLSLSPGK
light: QTVLSQSPAILSASPGEKVTMTCRASSSVTYIHWYQQKPGSSPKSWIYATSNLASGVPARFSGSGSGTSYSLTISRVEAEDAATYYCQHWSSKPPTFGGGTKLEIKRTVAAPSVFIFPPSDEQLKSGTASVVCLLNNFYPREAKVQWKVDNALQSGNSQESVTEQDSKDSTYSLSSTLTLSKADYEKHKVYACEVTHQGLSSPVTKSFNRGEC
For B6, which Kd (human CD28 [4]) is on record?
Its Kd is 37 nM.

B7: XENP44560 (bispecific antibody)
heavy: B6 heavy
scFv-Fc: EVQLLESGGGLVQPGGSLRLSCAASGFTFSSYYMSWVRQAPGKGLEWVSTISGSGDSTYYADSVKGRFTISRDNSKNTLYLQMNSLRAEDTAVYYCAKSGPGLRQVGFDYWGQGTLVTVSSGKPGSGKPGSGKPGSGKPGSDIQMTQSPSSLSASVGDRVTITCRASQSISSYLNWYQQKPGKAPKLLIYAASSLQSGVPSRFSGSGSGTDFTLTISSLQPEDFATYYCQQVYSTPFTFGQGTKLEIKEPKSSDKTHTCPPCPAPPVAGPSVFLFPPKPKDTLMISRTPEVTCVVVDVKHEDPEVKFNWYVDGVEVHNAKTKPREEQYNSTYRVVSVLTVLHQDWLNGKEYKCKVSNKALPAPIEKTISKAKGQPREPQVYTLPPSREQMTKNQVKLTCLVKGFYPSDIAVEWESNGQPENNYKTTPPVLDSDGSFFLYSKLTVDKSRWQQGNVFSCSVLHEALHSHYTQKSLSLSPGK
light: B6 light
notes: copies: 1 + 1 + 1
Which Kd (human CD28 [4]) does the source give for B7 here?
The Kd was 96 nM.

B8: XENP44338 (bispecific antibody)
heavy: B6 heavy
scFv-Fc: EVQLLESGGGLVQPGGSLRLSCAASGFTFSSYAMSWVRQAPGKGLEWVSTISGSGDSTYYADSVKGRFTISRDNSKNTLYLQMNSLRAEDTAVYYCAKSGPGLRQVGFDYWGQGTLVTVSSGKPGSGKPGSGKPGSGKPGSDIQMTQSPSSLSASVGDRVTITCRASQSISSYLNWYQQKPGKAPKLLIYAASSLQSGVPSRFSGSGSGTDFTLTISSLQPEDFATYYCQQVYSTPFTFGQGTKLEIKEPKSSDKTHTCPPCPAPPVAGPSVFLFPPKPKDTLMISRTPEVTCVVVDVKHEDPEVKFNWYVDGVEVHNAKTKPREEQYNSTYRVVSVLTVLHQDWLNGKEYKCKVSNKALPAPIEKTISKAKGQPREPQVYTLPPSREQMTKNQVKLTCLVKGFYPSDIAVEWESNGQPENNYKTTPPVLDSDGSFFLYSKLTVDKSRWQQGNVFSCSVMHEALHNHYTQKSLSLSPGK
light: B6 light
Which Kd (CEACAM5 [5]) does the source give for B8 here?
The Kd was about 0.7 nM.

B9: XENP44745 (bispecific antibody)
chain 1: B3 VH
chain 2: B3 VL with E1Q, I2T, A42S, L45S, I57V, F70Y
chain 3: not shown
With B9 as the binder, how does the Kd (CEACAM5 [5]) read?
The Kd was 5 nM.

B10: XENP44746 (bispecific antibody)
chain 1: B3 VH
chain 2: B3 VL
chain 3: not shown
B10 was tested. Which Kd (CEACAM5 [5]) did it give?
The Kd was 57 nM.

B11: XENP45915 (bispecific antibody)
heavy: EVQLVESGGGLVQPGGSLRLSCAASGFTFTDYYMNWVRQAPGKGLEWVGFIGNKANAYTTEYSASVKGRFTISRDKSKSSLYLQMNSLKTEDTAVYYCTRDRGLRFYFDYWGQGTLVTVSSASTKGPSVFPLAPSSKSTSGGTAALGCLVKDYFPEPVTVSWNSGALTSGVHTFPAVLQSSGLYSLSSVVTVPSSSLGTQTYICNVNHKPSDTKVDKKVEPKSCDKTHTCPPCPAPPVAGPSVFLFPPKPKDTLMISRTPEVTCVVVDVKHEDPEVKFNWYVDGVEVHNAKTKPREEEYNSTYRVVSVLTVLHQDWLNGKEYKCKVSNKALPAPIEKTISKAKGQPREPQVYTLPPSREEMTKNQVSLTCDVSGFYPSDIAVEWESDGQPENNYKTTPPVLDSDGSFFLYSKLTVDKSRWEQGDVFSCSVLHEALHSHYTQKSLSLSPGK
scFv-Fc: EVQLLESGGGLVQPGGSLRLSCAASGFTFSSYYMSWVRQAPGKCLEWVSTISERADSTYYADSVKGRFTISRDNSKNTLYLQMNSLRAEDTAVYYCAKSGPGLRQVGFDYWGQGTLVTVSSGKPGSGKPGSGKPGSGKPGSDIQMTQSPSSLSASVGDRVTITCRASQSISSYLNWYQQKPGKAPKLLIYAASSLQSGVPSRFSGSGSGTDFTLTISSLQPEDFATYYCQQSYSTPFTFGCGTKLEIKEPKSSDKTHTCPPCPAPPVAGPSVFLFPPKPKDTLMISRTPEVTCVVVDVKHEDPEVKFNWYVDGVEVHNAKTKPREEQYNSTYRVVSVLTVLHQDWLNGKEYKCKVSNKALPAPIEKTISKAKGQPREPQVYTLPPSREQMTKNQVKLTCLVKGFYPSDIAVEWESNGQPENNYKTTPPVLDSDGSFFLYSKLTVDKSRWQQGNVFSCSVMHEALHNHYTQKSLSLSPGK
light: EIVLTQSPATLSLSPGERATLSCRASSSVTYIHWYQQKPGQAPKSLIYATSNLASGIPARFSGSGSGTDFTLTISSLEPEDFAVYYCQHWSSKPPTFGGGTKVEIKRTVAAPSVFIFPPSDEQLKSGTASVVCLLNNFYPREAKVQWKVDNALQSGNSQESVTEQDSKDSTYSLSSTLTLSKADYEKHKVYACEVTHQGLSSPVTKSFNRGEC
B11 was tested. Which Kd (human CD28 [6]) did it give?
Its Kd is 26 nM.

B12: XENP44915 (bispecific antibody, human IgG1, kappa)
heavy: B11 heavy
scFv-Fc: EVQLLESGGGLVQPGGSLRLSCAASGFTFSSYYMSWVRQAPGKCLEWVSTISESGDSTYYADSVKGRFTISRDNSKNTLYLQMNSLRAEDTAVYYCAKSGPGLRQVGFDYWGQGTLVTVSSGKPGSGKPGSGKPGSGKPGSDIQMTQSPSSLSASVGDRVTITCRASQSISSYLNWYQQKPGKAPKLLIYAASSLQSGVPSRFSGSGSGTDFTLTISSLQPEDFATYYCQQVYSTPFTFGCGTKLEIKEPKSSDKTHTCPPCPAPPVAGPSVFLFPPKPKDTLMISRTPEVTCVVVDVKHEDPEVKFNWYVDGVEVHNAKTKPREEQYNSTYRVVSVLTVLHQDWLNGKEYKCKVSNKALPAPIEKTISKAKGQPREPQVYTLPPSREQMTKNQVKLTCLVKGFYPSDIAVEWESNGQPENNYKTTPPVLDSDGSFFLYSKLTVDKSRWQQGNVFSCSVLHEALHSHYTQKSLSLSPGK
light: B11 light
How did the Kd (human CD28 [6]) turn out when B12 was run?
Its Kd is 130 nM.

B13: XENP46500 (antibody, human IgG1, kappa, V domains shown)
VH: QVQVQESGPGLVKPSQTLSLTCTVSGYSITSDYAWNWIRQPPGKKLEWIGYISNSGSTSYNPSLKSRVTISRDTSKNQFSLKLSSVTAADTAVYYCARERNYDYELYYYAMDYWGQGTLVTVSS
VL: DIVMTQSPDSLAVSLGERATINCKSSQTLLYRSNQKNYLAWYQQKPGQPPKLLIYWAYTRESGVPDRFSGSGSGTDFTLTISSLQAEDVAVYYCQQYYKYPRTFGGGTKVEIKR
notes: also called H1.21 and L1.115; copies: 2 + 2
Does B13 bind (STEAP1)?
Result: binds

B14: XENP45835 (antibody, V domains shown)
VH: B13 VH with E105D, L106D
VL: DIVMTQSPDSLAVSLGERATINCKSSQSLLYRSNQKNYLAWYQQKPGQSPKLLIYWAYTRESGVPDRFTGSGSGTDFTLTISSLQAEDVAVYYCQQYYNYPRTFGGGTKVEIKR
notes: also called L1.56; H1 and L1.56; copies: 2 + 2
Does B14 bind (STEAP1)?
Result: binds
